Measured values: article PMC3923783, “Competitive and Cooperative Interactions Mediate RNA Transfer from Herpesvirus Saimiri ORF57 to the Mammalian Export Adaptor ALYREF” (PLoS Pathogens, 2014)

B1: ALYREF fragment aa1–155 (ALYREF^1–155) (domain or fragment)
chain: not shown
notes: source: E. coli BL21-RP, purified (gel filtration), as described previously [30]
B2: ORF57^8–120 (domain or fragment)
chain: GISSDDDFDSSDSSSDEEESDTSPQIMKSDVTMASPPSTPEPSPDVSASTSNLKRERQRSPITWEHQSPLSRVYRSPSPMRFGKRPRISSNSTSRSCKTSWADRVREAAAQRR
notes: Herpesvirus saimiri (HVS) ORF57 protein, residues 8-120; Construct of the NMR and fluorescence experiments; It may be the same construct as the hexa-histidine ORF57^8–120; also called ORF57 aa8–120; ORF57(aa8–120); source: E. coli BL21-RP, purified (gel filtration), as described previously [30]

How the values were obtained:
ORF57^8–120 = biological target: B2; experiment: other fluorescence titration; 14merS RNA titrated into 10 µM 1:1 ALYREF^1–155 - ORF57^8–120 mixture in buffer F; three-equation equilibrium model (DynaFit); the constant of ALYREF for the ORF57-RNA complex inferred from the thermodynamic cycle; apparent; details: both partners purified
[1] = biological target: B1; experiment: other fluorescence titration; blue shift of tryptophan emission (barycentric mean) with rising concentrations of equimolar ALYREF^1–155 and ORF57^8–120; buffer F (20 mM phosphate pH 6.2, 50 mM NaCl, 50 mM L-Arg+L-Glu, 5 mM EDTA, 1 mM TCEP); apparent Kd, quadratic equation or DynaFit; details: both partners purified

Binder: B1
- KD of ALYREF for the ORF57-RNA (14merS) complex, inferred from the thermodynamic cycle (ORF57^8–120): 0.52 µM

Binder: B2
- Kd [1]: 2.56 ± 0.2 µM
